Target: human extracellular domain of FGFR2b fused with the Fc domain of IgG1 (human)
Assay: BLI; Octet K2; FGFR extracellular domain-Fc immobilised on a protein A biosensor; FGF10 variants in PBS, 31.25 to 250 nM (told for FGFR2b-Fc); association and dissociation 300 s each; KD from fitted saturation binding curves

Kd [nM]	Binder
764	wildtype FGF10 (38-208) (ligand) QALGQDMVSPEATNSSSSSFSSPSSAGRHVRSYNHLQGDVRWRKLFSFTKYFLKIEKNGKVSGTKKENCPYSILEITSVEIGVVAVKAINSNYYLAMNKKGKLYGSKEFNNDCKLKERIEENGYNTYASFNWQHNGRQMYVALNGKGAPRRGQKTRRKNTSAHFLPMVVHS
996	FGF10-STAB2 (ligand) QALGQDMVSPEATNSSSSSFSSPSSAGRHVRSYNHLQGDVRIRKLFSFTGYFLKIEPNGKVSGTKKENCPYSILEITSVEIGVVAVKAINSGYYLAMNKKGKLYGSKEFNNDCKLKERIEENGYNTYASFNWRHNGRQMYVALNGKGAPVRGQKTRRKNTSAHFLPMVVHS
913	FGF10-STAB3 (ligand) QALGQDMVSPEATNSSSSSFSSPSSAGRHVRSYNHLQGDVRIRKLFSFTGYFLKIEPNGKVSGTKKENCPYSILEITSVEIGVVAVKAINSGYYLAMNKKGKLYGSKEFNNDCKLKERIEENGYNTYASFNWRHNGRQMYVALNGKGAPERGQKTRRKNTSAHFLPMVVHS
